Experimental data published in publication PMC7156492.

Biological target: tetrameric Y-complex fragment Nup120-Nup145C-Sec13-Nup85 (NPC-II) (Myceliophthora thermophila)
Assay: mass photometry; mixture of NPC-I and NPC-II (NPC-III) diluted 10-fold from 482 nM immediately before measurement; 10 mM HEPES pH 7.5, 150 mM NaCl, 1 mM DTT, 0.1 mM EDTA; no cross-linker

tetrameric Y-complex fragment Nup120-Nup145C-Sec13-Nup85 (NPC-II) (Myceliophthora thermophila), sequence (main, as listed by the source, chain 1 of 3): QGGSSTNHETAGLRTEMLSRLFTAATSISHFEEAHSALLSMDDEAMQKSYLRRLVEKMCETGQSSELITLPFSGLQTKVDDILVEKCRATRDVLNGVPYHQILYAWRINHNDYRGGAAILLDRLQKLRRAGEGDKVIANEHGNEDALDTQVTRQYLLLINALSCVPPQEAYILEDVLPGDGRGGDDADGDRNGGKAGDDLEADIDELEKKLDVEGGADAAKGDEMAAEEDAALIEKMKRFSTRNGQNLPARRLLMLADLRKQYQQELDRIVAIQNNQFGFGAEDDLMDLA
tetrameric Y-complex fragment Nup120-Nup145C-Sec13-Nup85 (NPC-II) (Myceliophthora thermophila), sequence (partner, as listed by the source, chain 2 of 3): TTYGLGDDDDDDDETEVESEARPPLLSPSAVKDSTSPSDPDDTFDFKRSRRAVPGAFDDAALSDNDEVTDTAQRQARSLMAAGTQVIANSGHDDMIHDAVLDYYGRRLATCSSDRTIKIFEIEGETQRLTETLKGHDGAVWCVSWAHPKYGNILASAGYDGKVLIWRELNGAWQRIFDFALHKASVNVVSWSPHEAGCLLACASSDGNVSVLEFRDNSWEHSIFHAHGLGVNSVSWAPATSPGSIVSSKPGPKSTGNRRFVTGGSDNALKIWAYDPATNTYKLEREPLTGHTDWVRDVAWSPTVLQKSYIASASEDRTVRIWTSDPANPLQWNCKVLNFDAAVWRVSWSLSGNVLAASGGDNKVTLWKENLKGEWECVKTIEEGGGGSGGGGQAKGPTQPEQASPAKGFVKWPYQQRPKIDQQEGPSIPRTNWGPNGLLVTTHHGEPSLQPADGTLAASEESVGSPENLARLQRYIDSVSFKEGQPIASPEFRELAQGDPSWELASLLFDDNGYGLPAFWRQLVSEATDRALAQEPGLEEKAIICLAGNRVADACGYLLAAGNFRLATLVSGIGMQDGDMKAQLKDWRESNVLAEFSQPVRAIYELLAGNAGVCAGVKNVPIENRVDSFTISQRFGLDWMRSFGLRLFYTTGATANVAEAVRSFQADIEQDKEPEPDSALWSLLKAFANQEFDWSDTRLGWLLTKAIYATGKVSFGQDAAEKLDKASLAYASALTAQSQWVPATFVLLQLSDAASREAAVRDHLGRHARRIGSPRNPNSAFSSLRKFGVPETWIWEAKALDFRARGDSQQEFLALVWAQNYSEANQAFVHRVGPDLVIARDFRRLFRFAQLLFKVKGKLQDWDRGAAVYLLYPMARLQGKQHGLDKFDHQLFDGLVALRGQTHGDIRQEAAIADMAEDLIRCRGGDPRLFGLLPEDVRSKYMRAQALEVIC
tetrameric Y-complex fragment Nup120-Nup145C-Sec13-Nup85 (NPC-II) (Myceliophthora thermophila), sequence (partner, as listed by the source, chain 3 of 3): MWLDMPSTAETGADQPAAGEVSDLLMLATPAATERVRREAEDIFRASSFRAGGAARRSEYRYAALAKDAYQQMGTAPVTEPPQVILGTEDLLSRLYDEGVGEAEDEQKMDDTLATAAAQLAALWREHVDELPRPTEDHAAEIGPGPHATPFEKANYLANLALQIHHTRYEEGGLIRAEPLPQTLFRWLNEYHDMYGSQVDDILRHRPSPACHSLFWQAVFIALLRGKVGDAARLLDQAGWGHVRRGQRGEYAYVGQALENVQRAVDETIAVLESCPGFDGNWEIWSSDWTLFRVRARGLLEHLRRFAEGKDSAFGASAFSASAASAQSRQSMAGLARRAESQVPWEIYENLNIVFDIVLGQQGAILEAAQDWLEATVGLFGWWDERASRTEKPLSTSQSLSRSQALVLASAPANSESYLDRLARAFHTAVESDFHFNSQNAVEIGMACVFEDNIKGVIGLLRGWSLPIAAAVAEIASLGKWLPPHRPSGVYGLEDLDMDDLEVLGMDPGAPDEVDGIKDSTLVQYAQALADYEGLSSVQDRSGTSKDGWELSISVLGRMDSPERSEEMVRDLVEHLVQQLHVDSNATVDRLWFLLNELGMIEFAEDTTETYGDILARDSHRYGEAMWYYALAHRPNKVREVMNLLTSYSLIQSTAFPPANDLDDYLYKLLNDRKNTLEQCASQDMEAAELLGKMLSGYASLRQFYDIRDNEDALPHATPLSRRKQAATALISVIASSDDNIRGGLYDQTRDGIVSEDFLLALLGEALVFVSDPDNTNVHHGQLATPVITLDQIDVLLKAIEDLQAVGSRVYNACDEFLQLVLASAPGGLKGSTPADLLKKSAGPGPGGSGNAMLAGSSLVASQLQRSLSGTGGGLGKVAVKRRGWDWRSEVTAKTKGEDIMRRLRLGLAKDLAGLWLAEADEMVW

stoichiometry N: 1
Substance: tetrameric Nup82-Nup145N-Nup159-Nsp1 complex (NPC-I)
